Reference: IntAct's records for PubMed 18369319

B1: Beta-adrenergic receptor kinase 1 (Homo sapiens), P25098 (parent)
chain: MADLEAVLADVSYLMAMEKSKATPAARASKKILLPEPSIRSVMQKYLEDRGEVTFEKIFSQKLGYLLFRDFCLNHLEEARPLVEFYEEIKKYEKLETEEERVARSREIFDSYIMKELLACSHPFSKSATEHVQGHLGKKQVPPDLFQPYIEEICQNLRGDVFQKFIESDKFTRFCQWKNVELNIHLTMNDFSVHRIIGRGGFGEVYGCRKADTGKMYAMKCLDKKRIKMKQGETLALNERIMLSLVSTGDCPFIVCMSYAFHTPDKLSFILDLMNGGDLHYHLSQHGVFSEADMRFYAAEIILGLEHMHNRFVVYRDLKPANILLDEHGHVRISDLGLACDFSKKKPHASVGTHGYMAPEVLQKGVAYDSSADWFSLGCMLFKLLRGHSPFRQHKTKDKHEIDRMTLTMAVELPDSFSPELRSLLEGLLQRDVNRRLGCLGRGAQEVKESPFFRSLDWQMVFLQKYPPPLIPPRGEVNAADAFDIGSFDEEDTKGIKLLDSDQELYRNFPLTISERWQQEVAETVFDTINAETDRLEARKKAKNKQLGHEEDYALGKDCIMHGYMSKMGNPFLTQWQRRYFYLFPNRLEWRGEGEAPQSLLTMEEIQSVEETQIKERKCLLLKIRGGKQFILQCDSDPELVQWKKELRDAYREAQQLVQRVPKMKNKPRSPVVELSKVPLVQRGSANGL
partner: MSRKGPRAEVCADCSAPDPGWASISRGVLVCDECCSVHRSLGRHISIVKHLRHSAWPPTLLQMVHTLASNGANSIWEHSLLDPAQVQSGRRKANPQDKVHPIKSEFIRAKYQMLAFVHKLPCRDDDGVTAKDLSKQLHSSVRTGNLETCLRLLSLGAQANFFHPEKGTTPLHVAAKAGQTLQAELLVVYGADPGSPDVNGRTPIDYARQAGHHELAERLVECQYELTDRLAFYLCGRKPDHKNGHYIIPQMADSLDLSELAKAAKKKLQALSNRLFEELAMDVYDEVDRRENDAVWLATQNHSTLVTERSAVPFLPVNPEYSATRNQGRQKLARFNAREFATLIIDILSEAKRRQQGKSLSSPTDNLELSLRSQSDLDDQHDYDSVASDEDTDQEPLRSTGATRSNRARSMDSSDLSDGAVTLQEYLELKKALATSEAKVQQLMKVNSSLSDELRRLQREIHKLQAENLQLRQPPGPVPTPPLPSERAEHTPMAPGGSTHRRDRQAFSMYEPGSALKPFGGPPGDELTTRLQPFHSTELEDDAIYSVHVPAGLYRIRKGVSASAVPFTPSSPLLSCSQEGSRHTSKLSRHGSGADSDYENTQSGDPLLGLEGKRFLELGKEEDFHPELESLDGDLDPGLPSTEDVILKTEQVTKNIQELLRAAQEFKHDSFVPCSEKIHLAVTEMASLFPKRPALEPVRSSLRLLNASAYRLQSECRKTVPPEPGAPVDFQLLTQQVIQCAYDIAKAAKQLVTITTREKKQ

Variants of: B1
Settings: with git1_human GIT1, Q9Y2X7

| Variant | effect of a mutation on the interaction |
| --- | --- |
| Y13F;Y86F;Y92F | disrupting interaction |

Variants of: B1
Settings: with git1_human GIT1, Q9Y2X7
Remark: another data set of the same source

| Variant | effect of a mutation on the interaction |
| --- | --- |
| Y86D;Y92D | increasing interaction |

Variants of: B1
Settings: with git1_human GIT1, Q9Y2X7
Remark: another data set of the same source

| Variant | effect of a mutation on the interaction |
| --- | --- |
| S670D | disrupting interaction |

Variants of: B1
Settings: with git1_human GIT1, Q9Y2X7
Remark: another data set of the same source

| Variant | effect of a mutation on the interaction |
| --- | --- |
| S670A | increasing interaction |
